Assay results reported in patent US20110150884A1 (ST VINCENT S INSTITUTE OF MEDICAL RESEARCH, published 2011).

B2: sβc N346Q, soluble extracellular domain of human βc with the third N-glycosylation site removed (receptor, UniProt P32927 17-443, looked up)
chain: WERSLAGAEETIPLQTLRCYNDYTSHITCRWADTQDAQRLVNVTLIRRVNEDLLEPVSCDLSDDMPWSACPHPRCVPRRCVIPCQSFVVTDVDYFSFQPDRPLGTRLTVTLTQHVQPPEPRDLQISTDQDHFLLTWSVALGSPQSHWLSPGDLEFEVVYKRLQDSWEDAAILLSNTSQATLGPEHLMPSSTYVARVRTRLAPGSRLSGRPSKWSPEVCWDSQPGDEAQPQNLECFFDGAAVLSCSWEVRKEVASSVSFGLFYKPSPDAGEEECSPVLREGLGSLHTRHHCQIPVPDPATHGQYIVSVQPRRAEKHIKSSVNIQMAPPSLQVTKDGDSYSLRWETMKMRYEHIDHTFEIQYRKDTATWKDSKTETLQNAHSMALPALEPSTRYWARVRVRTSRTGYNGIWSEWSEARSWDTESVLPMW
modifications: N-linked carbohydrate at Asn58 (NAG-NAG-MAN) and Asn191 (NAG)
notes: extracellular domain; Intertwined homodimer; Cloned into pIBV5-His; also called sβc ΔN3; GM-CSF βc chain

Assays:
[1] = biological target: IL-3 receptor on cells: IL3Rα co-expressed with the βc4 Gpoly-A mutant (M7-βc) (human), P26951; assay: cell-based or functional assay
[2] = biological target: the molecule itself; assay: X-ray crystal structure, 3.3 Å
Method: (§1) The structure was determined by molecular replacement using the method of Storoni et al, Acta Crystallogr. D 60:432, 2004.
(§2) A homology model of domain 2 of the alpha chain was built into this density. […] D Biol. Crystallogr. 50:760, 1994 and refinement using the method of Murshudov et al, Acta Crystallogr. D 53:240, 1997. […] During the final refinement step each subunit was treated as a rigid body for the purposes of TLS (translation, libration and screw rotation tensors) refinement to account for overall differences in displacements between the molecules and anisotropy in the data (Winn et al, Acta Crystallogr. D 57:122, 2001; Painter and Merritt, Acta Crystallogr. D 62:439, 2006).

[3] = biological target: T1, wild-type sβc, soluble extracellular domain of human βc (human, UniProt P32927 17-443); assay: ternary complex formation of soluble proteins (all three present); wild type as the reference
T1 construct: extracellular domain; Expressed in Sf21 cells
T1 sequence (looked up): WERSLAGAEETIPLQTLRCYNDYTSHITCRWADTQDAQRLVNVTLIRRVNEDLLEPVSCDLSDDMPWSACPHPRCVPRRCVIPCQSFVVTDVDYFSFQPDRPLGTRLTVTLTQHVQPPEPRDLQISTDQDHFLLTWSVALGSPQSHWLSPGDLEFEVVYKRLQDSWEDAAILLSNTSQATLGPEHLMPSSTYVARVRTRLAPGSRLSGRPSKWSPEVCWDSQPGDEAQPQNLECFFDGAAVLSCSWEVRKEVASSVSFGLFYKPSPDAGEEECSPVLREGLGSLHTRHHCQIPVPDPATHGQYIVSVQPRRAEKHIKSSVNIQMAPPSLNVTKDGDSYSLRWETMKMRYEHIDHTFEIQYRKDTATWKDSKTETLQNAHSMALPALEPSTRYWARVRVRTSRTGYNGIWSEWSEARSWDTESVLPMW

[4] = biological target: B2; assay: X-ray crystal structure, 3.3 Å
Method: as §1, §2

Sequence of IL-3 receptor on cells: IL3Rα co-expressed with the βc4 Gpoly-A mutant (M7-βc) (human), P26951 (P26951 19-378, change not shown): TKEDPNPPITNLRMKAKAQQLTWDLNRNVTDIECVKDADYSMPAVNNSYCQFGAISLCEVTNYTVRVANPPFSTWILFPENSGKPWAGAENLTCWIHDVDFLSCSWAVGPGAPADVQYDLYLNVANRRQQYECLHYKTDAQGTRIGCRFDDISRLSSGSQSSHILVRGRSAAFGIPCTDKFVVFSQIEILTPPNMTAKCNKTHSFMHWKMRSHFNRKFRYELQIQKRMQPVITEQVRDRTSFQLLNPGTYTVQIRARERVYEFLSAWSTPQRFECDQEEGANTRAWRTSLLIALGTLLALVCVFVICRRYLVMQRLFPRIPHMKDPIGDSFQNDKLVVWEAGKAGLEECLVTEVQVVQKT

B1: IL-3, P08700 20-152 (ligand, UniProt P08700 20-152, looked up)
chain: APMTQTTPLKTSWVNCSNMIDEIITHLKQPPLPLLDFNNLNGEDQDILMENNLRRPNLEAFNRAVKSLQNASAIESILKNLLPCLPLATAAPTRHPIHIKDGDWNEFRRKLTFYLKTLENAQAQQTTLSLAIF
modifications: here or on the partner: radio-iodinated (125I) in the COS cell binding assays
Q: How did the ED50 of proliferation of CTL-EN cells in response to IL-3 [1] turn out when B1 was run?
A: 0.0103 µg/mL

Q: What about the fold increase of ED50 against wild type βc [1] of the same binder?
A: 413 fold

Q: Does B2 bind [2]?
A: binds

B3: sGM-CSFRα, soluble extracellular domain of the GM-CSF receptor alpha chain, expressed in Sf21 insect cells (receptor, human, UniProt P15509 23-320, looked up)
chain: EKSDLRTVAPASSLNVRFDSRTMNLSWDCQENTTFSKCFLTDKKNRVVEPRLSNNECSCTFREICLHEGVTFEVHVNTSQRGFQQKLLYPNSGREGTAAQNFSCFIYNADLMNCTWARGPTAPRDVQYFLYIRNSKRRREIRCPYYIQDSGTHVGCHLDNLSGLTSRNYFLVNGTSREIGIQFFDSLLDTKKIERFNPPSNVTVRCNTTHCLVRWKQPRTYQKLSYLDFQYQLDVHRKNTQPGTENLLINVSGDLENRYNFPSSEPRAKHSVKIRAADVRILNWSSWSEAIEFGSDDG
modifications: N-linked carbohydrate at Asn229 (modeled as NAG-NAG)
notes: extracellular domain; Cloned into the pIBV5-His vector; Residues 218-316 (domain 2) were traced in the crystal; also called GMRα
Q: Does B3 bind [3]?
A: binds

Q: Does B3 bind [4]?
A: binds
